Results from patent publication US20090123452A1 (TORREY PINES INSTITUTE FOR MOLECULAR STUDIES AND CATALYST …, published 2009).

B1: Mutant MT-SP1 clone CPC-0023085 (phage) (enzyme)
chain: VVGGTDADEGEWPWQVSLHALGQGHFCGASLISPNWLVSAAHCYIDDRGFRYSDPTQWTAFLGLHDQSQRSAPGVQERRLKRIISHPFFNDFTFDYDIALLELEKPAEYSSMVRPISLPDASHVFPAGKAIWVTGWGHTQYGGTGALILQKGEIRVINQTTCENLLPQQITPRMMCVGFLSGGVDSCQGDSGGPLSSVEADGRIFQAGVVSWGDGCAQRNKPGVYTRLPLFRDWIKENTGVSGSSGGGSEGGGSEGGGSEGGGSGGGSGSGDFDYEKMANANKGAMTENADENALQSDAKGKLDSVATDYGAAIDGFIGDVSGLANGNGATGDFAGSNSQMAQVGDGDNSPLMNNFRQYLPSLPQSVECRPFVFSAGKPYEFSIDCDKINLFRGVFAFLLYVATFMYVFSTFANILRNKES
notes: I41F/C122S
B2: Mutant MT-SP1 clone CPC-0027706 (phage) (enzyme)
chain: VVGGTDADEGEWPWQVSLHALGQGHICGASLISPNWLVSAAHCYIDDRGFRYSDPTQWTAFLGLHDQSQRSAPGVQERRLKRIISHPFFNDYTFDYDIALLELEKPAEYSSMVRPISLPDASHVFPAGKAVWVTGWGHTQYGGTGALILQKGEIRVINQTTCENLLPQQITPRMMCVGFLSGGVDSCHGDSGGPLSIVEADGRIFQAGVVSWGDGCAQRNKPGVYTRLPLFRDWIKENTGVSGSSGGGSEGGGSEGGGSEGGGSGGGSGSGDFDYEKMANANKGAMTENADENALQSDAKGKLDSVATDYGAAIDGFIGDVSGLANGNGATGDFAGSNSQMAQVGDGDNSPLMNNFRQYLPSLPQSVECRPFVFSAGKPYEFSIDCDKINLFRGVFAFLLYVATFMYVFSTFANILRNKES
notes: F97Y/C122S/I136V/Q192H/S201I
B3: Mutant MT-SP1 clone CPC-0019595 (phage) (enzyme)
chain: VVGGTDADEGEWPWQVSLHALGQGHICGASLISPNWLVSAAHCYIDDRGFRYSDPTQWTAFLGLHDQSQRSAPGVQERRLKRIISHPFFNDFTFDYDIALLELEKPAEYSSMVRPISLPDASHVFPAGKATWVTGWGHTQYGGTGALILQKGEIRVIDQATCENLLPQQITPRMMCVGLLSGGVDSCQGDSGGPLSSVEADGRIFQAGVVSWGVGCAQRNKPGVYTRLPLFRDWIKENTGVSGSSGGGSEGGGSEGGGSEGGGSGGGSGSGDFDYEKMANANKGAMTENADENALQSDAKGKLDSVATDYGAAIDGFIGDVSGLANGNGATGDFAGSNSQMAQVGDGDNSPLMNNFRQYLPSLPQSVECRPFVFSAGKPYEFSIDCDKINLFRGVFAFLLYVATFMYVFSTFANILRNKES
notes: C122S/I136T/N164D/T166A/F184(A)L/D217V (chymotrypsin numbering); the STII leader is not counted
B4: Mutant MT-SP1 clone CPC-0027797 (phage) (enzyme)
chain: VVGGTDADEGEWPWQVSLHALGQGHICGASLISPNWLVSAAHCYIDDRGFRYSDPTQWTAFLGLRDQSQRSAPGVQERRLKRIISHPFFNDFTFDYDIALLELEKPAEYSSMVRPISLPDASHVFSAGKAIWVTGWGHTQYGGTGALILQKGEIRVINQTTCENLLPQQITPRMMCVGFLSGGVDSCQGDSGGPLSSVEADGRIFQAGVVSWGVGCAQRNKPGVYTRLPLFRDWIKENTGVSGSSGGGSEGGGSEGGGSEGGGSGGGSGSGDFDYEKMANANKGAMTENADENALQSDAKGKLDSVATDYGAAIDGFIGDVSGLANGNGATGDFAGSNSQMAQVGDGDNSPLMNNFRQYLPSLPQSVECRPFVFSAGKPYEFSIDCDKINLFRGVFAFLLYVATFMYVFSTFANILRNKES
notes: H71R/C122S/P131S/D217V
B5: Mutant MT-SP1 clone CPC-0027399 (phage) (enzyme)
chain: VVGGTDADEGEWPWQVSLHALGQGHICGASLISPNWLVSAAHCYIDDRGFRYSDPTQWTAFLGLHDQSQRSAPGVQERRLKRIISHPFFNDFTLDYDIALLELEKPAEYSSMVRPISLPDASHVFPAGKAIWVTGWGHTQYGGTGALILQKGEIRVINQTTCENLLPQQITPRMMCVGFLSGGVDSCQGDSGGPLSSVEADGRIFQAGVVSWGDGCAQRNKPGVYTRLPLFRDWIKENTGVSGSSGGGSEGGGSEGGGSEGGGSGGGSGSGDFDYEKMANANKGAMTENADENALQSDAKGKLDSVATDYGAAIDGFIGDVSGLANGNGATGDFAGSNSQMAQVGDGDNSPLMNNFRQYLPSLPQSVECRPFVFSAGKPYEFSIDCDKINLFRGVFAFLLYVATFMYVFSTFANILRNKES
notes: F99L/C122S
B6: Mutant MT-SP1 clone CPC-0025582 (phage) (enzyme)
chain: VVGGTDADEGEWPWQVSLHALGQGHFCGASLISPNWLVSAAHCYIDDRGFRYSDPTQWTAFLGLHDQSQRSAPGVQERRLKRIISHPFFNDFTFDYDIALLELEKPAEYSSMVRPISLPDASHVFPAGKAIWVTGWGHTQYGGTGALILQKGEIRVINQTTCENFLPQQITPRMMCVGFLSGGVDSCQGDSGGPLSSVEADGRIFQAGVVSWGDGCAQRNKPGVYTRLPLFRDWIKENTGGSGSSGGGSEGGGSEGGGSEGGGSGGGSGSGDFDYEKMANANKGAMTENADENALQSDAKGKLDSVATDYGAAIDGFIGDVSGLANGNGATGDFAGSNSQMAQVGDGDNSPLMNNFRQYLPSLPQSVECRPFVFSAGKPYEFSIDCDKINLFRGVFAFLLYVATFMYVFSTFANILRNKES
notes: I41F/C122S/L171F/V244G
B7: Mutant MT-SP1 clone CPC-0026100 (phage) (enzyme)
chain: VVGGTDADEGEWPWQVSLHALGQGHFCGASLISPNWLVSAAHCYIDDRGFRYSDPTQWTAFLGLHDQSQRSAPGVQERRLKRIISHPFFNDFTFDYDIALLELEKPAEYSSMVRPISLPDASHVFPAGKAIWVTGWGHTQYGGTGALVLQKGEIRVINQTTCENLLPQQITPRMMCVGFLSGGVDSCQGDSGGPLSSVEADGRIFQAGVVSWGDGCAQRNKPGVYTRLPLFRDWIKENTGGSGSSGGGSEGGGSEGGGSEGGGSGGGSGSGDFDYEKMANANKGAMTENADENALQSDAKGKLDSVATDYGAAIDGFIGDVSGLANGNGATGDFAGSNSQMAQVGDGDNSPLMNNFRQYLPSLPQSVECRPFVFSAGKPYEFSIDCDKINLFRGVFAFLLYVATFMYVFSTFANILRNKES
notes: I41F/C122S/I154V/V244G
B8: Mutant MT-SP1 clone CPC-0025720 (phage) (enzyme)
chain: VVGGTDADEGEWPWQVSLHALGQGHICGASLISPNWLVSAAHCYIDDRGFRYSDPTQWTAFLGLHDQSQRSAPGVQERRLKRIISHPFFNDFTFDYDIALLELEKPAEYSSMVRPISLPDASHVFPAGKAIWVTGWGRTQYGGTGALILQKGEIRVINQTTCENLLPQRITPRMMCVGFLSGGVDSCQGDSGGPLSSVEADGRIFQAGVVSWGDGCAQRNKPGVYTRLPLFRDWIKENTGVSGSSGGGSEGGGSEGGGSEGGGSGGGSGSGDFDYEKMANANKGAMTENADENALQSDAKGKLDSVATDYGAAIDGFIGDVSGLANGNGATGDFAGSNSQMAQVGDGDNSPLMNNFRQYLPSLPQSVECRPFVFSAGKPYEFSIDCDKINLFRGVFAFLLYVATFMYVFSTFANILRNKES
notes: C122S/H143R/Q175R
B9: Mutant MT-SP1 clone CPC-0024153 (phage) (enzyme)
chain: VVGGTDADEGEWPWQVSLHALGQGHFCGASLISPNWLVSAAHCYIDDRGFRYSDPTQWTAFLGLHDQSQRSAPGVQERRLKRIISHPFFNDFTFDYDIALLELEKPAEYSSMVRPISLPDTSHVFPAGKAIWVTGWGHTQYGGTGALILQKGEIRVINQTTCENLLPQQITPRMMCVGFLSGGVDSCQGDSGGPLSSVEADGRIFQAGVVSWGDGCAQRNKPGVYTRLPLFRDWIKENTGGSGSSGGGSEGGGSEGGGSEGGGSGGGSGSGDFDYEKMANANKGAMTENADENALQSDAKGKLDSVATDYGAAIDGFIGDVSGLANGNGATGDFAGSNSQMAQVGDGDNSPLMNNFRQYLPSLPQSVECRPFVFSAGKPYEFSIDCDKINLFRGVFAFLLYVATFMYVFSTFANILRNKES
notes: I41F/C122S/A126T/V244G
B10: Mutant MT-SP1 clone CPC-0025366 (phage) (enzyme)
chain: VVGGTDAEEGEWPWQVSLHALGQGHFCGASLISPNWLVSAAHCYIDDRGFRYSDPTQWTAFLGLHDQSQRSAPGVQERRLKRIISHPFFNDFPFDYDIALLELEKPAEYSSMVRPISLPDASHVFPAGKAIWVTGWGHIQYGGTGALILQKGEIRVINQTTCENLLPQQITPRMMCVGFLSGGVDSCQGDSGGPLSSVEADGRIFQAGVVSWGDGCAQRNKPGVYTRLPLFRDWIKENTGVSGSSGGGSEGGGSEGGGSEGGGSGGGSGSGDFDYEKMANANKGAMTENADENALQSDAKGKLDSVATDYGAAIDGFIGDVSGLANGNGATGDFAGSNSQMAQVGDGDNSPLMNNFRQYLPSLPQSVECRPFVFSAGKPYEFSIDCDKINLFRGVFAFLLYVATFMYVFSTFANILRNKES
notes: D23E/I41F/T98P/C122S/T144I
B11: Mutant MT-SP1 clone CPC-0025876 (phage) (enzyme)
chain: VVGGTDADEGEWPWQVSLHALGQGHFCGASLISPNWLVSAAHCYIDDRGFRYSDPTQWTAFLGLHDQSQRSAPGVQERRLKRIISHPFFNDFTFDYDIALLELEKPAEYSSMVRPISLPDASHVFPAGKAIWVTGWGHTQYGGTGALILQKGEIRVINQTTCENFLPQQITPRMMCVGFLSGGVDSCQGDSGGPLSSVEADGRIFQAGVVSWGDGCAQRNKPGVYTRLPLFRDWIKENTGVSGSSGGGSEGGGSEGGGSEGGGSGGGSGSGDFDYEKMANANKGAMTENADENALQSDAKGKLDSVATDYGAAIDGFIGDVSGLANGNGATGDFAGSNSQMAQVGDGDNSPLMNNFRQYLPSLPQSVECRPFVFSAGKPYEFSIDCDKINLFRGVFAFLLYVATFMYVFSTFANILRNKES
notes: I41F/C122S/L171F
B12: Mutant MT-SP1 clone CPC-0026232 (phage) (enzyme)
chain: VVGGTDADEGEWPWQVSLHALGQGHFCGASLISPNWMVSAAHCYIDDRGFRYSDPTQWTAFLGLHDQSQRSAPGVQERRLKRIISHPFFNDFTFDYDIALLELEKPAEYSSMVRPISLPDASHDFPAGKAIWVTGWGHTQYGGTGALILQKGEIRVINQTTCENLLPQQITPRMMCVGFLSGGVDSCQGDSGGPLSSVEADGRIFQAGVVSWGDGCALRNKPGVYTRLPLFRDWIKENTGVSGSSGGGSEGGGSEGGGSEGGGSGGGSGSGDFDYEKMANANKGAMTENADENALQSDAKGKLDSVATDYGAAIDGFIGDVSGLANGNGATGDFAGSNSQMAQVGDGDNSPLMNNFRQYLPSLPQSVECRPFVFSAGKPYEFSIDCDKINLFRGVFAFLLYVATFMYVFSTFANILRNKES

Biological target: T1, mutant antithrombin III AT3/SLGR-KI (human, UniProt P01008 33-464)
T1 construct: RCL residues IAGRSL are replaced by SLGRKI; also called AT3 (AT3/SLGR-KI)
T1 chain: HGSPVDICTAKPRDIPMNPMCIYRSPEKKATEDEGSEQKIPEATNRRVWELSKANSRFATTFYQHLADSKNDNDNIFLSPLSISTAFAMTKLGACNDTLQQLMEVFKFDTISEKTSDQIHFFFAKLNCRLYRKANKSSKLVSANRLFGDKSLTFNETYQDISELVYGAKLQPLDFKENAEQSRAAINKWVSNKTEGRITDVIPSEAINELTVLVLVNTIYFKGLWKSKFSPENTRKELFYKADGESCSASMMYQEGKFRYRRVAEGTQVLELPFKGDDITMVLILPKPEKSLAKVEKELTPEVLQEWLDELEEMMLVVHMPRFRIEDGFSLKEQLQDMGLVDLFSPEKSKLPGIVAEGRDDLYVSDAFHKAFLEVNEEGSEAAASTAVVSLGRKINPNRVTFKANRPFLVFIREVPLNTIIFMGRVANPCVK
Test: phage display selection: complex with His-tagged AT3-SLGRKI bait captured by anti-His antibody on plate
B1: binds. B2: binds. B3: binds. B4: binds. B5: binds. B6: binds. B7: binds. B8: binds. B9: binds. B10: binds. B11: binds. B12: binds.
